Laboratory results published in paper PMC10933773, “Phosphorylation by ATR triggers FANCD2 chromatin loading and activates the Fanconi anemia pathway”.

What was measured:
Conditions in all cases: protein: recombinant;recombinant; tags: FLAG-HA;His; copies: 1;1; label: radiolabelled; fork: 29 bp duplex (S3[1-29] with S4[22-50]), unpaired arms 21 nt (3' of S3) and 21 nt (5' of S4)
[1] = molecular target: FANCD2 WT;FANCI (human?;human?, UniProt Q9BXW9;Q9NVI1 1-1451;1-1328, |); assay: EMSA; 25 mM Tris-HCl pH 7.5, 100 mM NaCl, 1 mM EDTA, 6% glycerol, 1 mM DTT, 1 nM DNA, room temperature 60-90 min; 4% PAGE 0.4x TBE at 4 C
FANCD2 WT;FANCI, sequence (Q9BXW9 whole entry, chain 1 of 2): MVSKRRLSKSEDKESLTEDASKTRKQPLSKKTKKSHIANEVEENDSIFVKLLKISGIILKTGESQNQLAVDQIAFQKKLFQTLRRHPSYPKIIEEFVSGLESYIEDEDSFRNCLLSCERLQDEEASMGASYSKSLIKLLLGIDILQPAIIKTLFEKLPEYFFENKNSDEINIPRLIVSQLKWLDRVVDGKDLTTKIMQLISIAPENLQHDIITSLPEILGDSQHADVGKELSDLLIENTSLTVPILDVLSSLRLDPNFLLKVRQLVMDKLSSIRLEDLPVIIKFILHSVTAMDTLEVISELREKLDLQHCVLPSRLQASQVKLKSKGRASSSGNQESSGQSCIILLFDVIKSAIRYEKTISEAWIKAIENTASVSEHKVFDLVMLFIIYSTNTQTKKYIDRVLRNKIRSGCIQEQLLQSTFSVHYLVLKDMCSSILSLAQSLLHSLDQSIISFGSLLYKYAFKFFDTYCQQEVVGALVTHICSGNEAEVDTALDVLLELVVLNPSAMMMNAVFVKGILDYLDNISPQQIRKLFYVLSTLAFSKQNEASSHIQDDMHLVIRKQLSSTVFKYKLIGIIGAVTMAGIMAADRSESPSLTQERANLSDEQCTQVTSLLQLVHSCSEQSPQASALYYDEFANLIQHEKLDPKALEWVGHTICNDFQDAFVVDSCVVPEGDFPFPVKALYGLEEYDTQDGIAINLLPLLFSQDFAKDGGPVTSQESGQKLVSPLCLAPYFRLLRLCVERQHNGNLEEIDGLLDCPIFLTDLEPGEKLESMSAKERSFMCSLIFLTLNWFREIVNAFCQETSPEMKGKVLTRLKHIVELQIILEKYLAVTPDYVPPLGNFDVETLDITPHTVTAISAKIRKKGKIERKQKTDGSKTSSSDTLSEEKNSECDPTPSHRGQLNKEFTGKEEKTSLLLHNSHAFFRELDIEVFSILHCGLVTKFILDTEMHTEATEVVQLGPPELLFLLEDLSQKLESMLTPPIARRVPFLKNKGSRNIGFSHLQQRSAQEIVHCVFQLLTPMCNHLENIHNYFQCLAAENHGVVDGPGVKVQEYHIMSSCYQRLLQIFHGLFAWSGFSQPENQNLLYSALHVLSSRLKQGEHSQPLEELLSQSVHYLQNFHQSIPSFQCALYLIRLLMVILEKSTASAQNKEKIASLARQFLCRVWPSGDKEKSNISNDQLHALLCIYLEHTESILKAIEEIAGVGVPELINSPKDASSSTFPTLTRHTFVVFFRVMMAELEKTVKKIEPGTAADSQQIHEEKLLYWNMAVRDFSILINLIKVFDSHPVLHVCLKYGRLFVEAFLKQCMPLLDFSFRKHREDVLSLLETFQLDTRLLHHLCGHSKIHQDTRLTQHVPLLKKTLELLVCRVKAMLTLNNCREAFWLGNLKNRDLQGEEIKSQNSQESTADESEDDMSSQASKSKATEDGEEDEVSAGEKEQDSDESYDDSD
FANCD2 WT;FANCI, sequence (Q9NVI1 whole entry, chain 2 of 2): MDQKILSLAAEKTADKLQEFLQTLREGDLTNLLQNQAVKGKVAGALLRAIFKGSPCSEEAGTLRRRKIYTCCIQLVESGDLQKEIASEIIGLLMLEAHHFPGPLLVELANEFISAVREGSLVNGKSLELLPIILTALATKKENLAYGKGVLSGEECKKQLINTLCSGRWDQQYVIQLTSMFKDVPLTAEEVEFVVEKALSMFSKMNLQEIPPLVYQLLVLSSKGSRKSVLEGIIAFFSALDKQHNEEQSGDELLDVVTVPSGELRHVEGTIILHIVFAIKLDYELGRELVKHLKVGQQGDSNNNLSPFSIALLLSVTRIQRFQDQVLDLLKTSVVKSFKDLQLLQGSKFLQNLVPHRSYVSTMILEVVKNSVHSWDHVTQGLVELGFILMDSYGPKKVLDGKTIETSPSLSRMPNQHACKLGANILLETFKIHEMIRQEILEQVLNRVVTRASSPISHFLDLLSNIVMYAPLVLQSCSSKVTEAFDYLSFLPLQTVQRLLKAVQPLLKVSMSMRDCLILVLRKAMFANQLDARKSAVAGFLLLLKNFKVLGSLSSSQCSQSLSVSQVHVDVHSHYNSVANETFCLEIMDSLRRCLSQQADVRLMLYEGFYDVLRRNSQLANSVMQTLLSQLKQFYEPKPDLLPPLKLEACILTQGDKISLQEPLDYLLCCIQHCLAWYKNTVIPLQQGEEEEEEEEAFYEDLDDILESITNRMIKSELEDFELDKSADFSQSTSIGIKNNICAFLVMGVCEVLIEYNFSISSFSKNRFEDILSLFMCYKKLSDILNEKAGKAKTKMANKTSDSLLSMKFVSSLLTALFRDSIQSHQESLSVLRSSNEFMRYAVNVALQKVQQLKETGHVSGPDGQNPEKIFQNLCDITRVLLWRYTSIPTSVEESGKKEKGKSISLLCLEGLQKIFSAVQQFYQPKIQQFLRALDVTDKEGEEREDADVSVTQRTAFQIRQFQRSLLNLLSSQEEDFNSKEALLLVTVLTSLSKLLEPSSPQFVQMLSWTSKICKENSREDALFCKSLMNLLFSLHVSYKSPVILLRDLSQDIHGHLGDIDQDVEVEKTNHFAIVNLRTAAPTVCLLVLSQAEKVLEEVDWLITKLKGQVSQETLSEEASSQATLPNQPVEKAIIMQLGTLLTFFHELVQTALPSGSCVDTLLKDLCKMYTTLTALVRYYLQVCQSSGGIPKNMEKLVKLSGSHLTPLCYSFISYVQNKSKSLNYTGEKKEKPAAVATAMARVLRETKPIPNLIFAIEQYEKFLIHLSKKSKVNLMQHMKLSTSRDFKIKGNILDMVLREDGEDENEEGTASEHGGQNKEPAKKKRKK

[2] = molecular target: FANCD2-10A;FANCI (human?;human?, UniProt Q9BXW9;Q9NVI1 1-1451;1-1328, S64A;S178A;S319A;T596A;T608A;S705A;S1257A;S1401A;S1404A;S1418A|); assay: as above
FANCD2-10A;FANCI, sequence (Q9BXW9 whole entry S64A/S178A/S319A/T596A/T608A/S705A/S1257A/S1401A/S1404A/S1418A, chain 1 of 2): as the sequence (Q9BXW9 whole entry, chain 1 of 2) above, with S64A, S178A, S319A, T596A, T608A, S705A, S1257A, S1401A, S1404A, S1418A counted along it
FANCD2-10A;FANCI, sequence (Q9NVI1 whole entry, chain 2 of 2): as the sequence (Q9NVI1 whole entry, chain 2 of 2) above

[3] = molecular target: FANCD2-10D;FANCI (human?;human?, UniProt Q9BXW9;Q9NVI1 1-1451;1-1328, S64D;S178D;S319D;T596D;T608D;S705D;S1257D;S1401D;S1404D;S1418D|); assay: EMSA; stronger than WT and 10A; 25 mM Tris-HCl pH 7.5, 100 mM NaCl, 1 mM EDTA, 6% glycerol, 1 mM DTT, 1 nM DNA, room temperature 60-90 min; 4% PAGE 0.4x TBE at 4 C
FANCD2-10D;FANCI, sequence (Q9BXW9 whole entry S64D/S178D/S319D/T596D/T608D/S705D/S1257D/S1401D/S1404D/S1418D, chain 1 of 2): as the sequence (Q9BXW9 whole entry, chain 1 of 2) above, with S64D, S178D, S319D, T596D, T608D, S705D, S1257D, S1401D, S1404D, S1418D counted along it
FANCD2-10D;FANCI, sequence (Q9NVI1 whole entry, chain 2 of 2): as the sequence (Q9NVI1 whole entry, chain 2 of 2) above

Measured: binding result

B1: ICL14 Y-shaped DNA (stalled fork mimic) (dsDNA)
DNA 1: CATTGTGAATTCGCCTCTCTGTCTAGCCGAAGCTCGAAACGATCTTGTGC
DNA 2: GTCCATCAAAGTTCGACTGTGCGGCTAGACAGAGAGGCGAATTCACAATG
binds: all assays above
